According to publication PMC10872757:

Target: MurAA-His6 (wild-type), UDP-N-acetylglucosamine 1-carboxyvinyl transferase of Enterococcus faecalis (Enterococcus faecalis)
Assay: thermal shift assay

MurAA-His6 (wild-type), UDP-N-acetylglucosamine 1-carboxyvinyl transferase of Enterococcus faecalis (Enterococcus faecalis), sequence (Q831A8 whole entry): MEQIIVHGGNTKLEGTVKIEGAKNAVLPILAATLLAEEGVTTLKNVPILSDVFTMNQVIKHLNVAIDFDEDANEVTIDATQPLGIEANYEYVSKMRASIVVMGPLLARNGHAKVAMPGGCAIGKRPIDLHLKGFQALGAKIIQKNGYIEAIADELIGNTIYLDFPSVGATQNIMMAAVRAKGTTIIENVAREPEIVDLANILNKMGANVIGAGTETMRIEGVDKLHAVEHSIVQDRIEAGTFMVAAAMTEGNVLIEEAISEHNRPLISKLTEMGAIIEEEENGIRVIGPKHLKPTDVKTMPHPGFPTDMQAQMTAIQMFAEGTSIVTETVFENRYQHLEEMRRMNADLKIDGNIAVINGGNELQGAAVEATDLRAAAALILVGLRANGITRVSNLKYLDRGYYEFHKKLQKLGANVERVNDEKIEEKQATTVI

B1: IreB (unphosphorylated), substrate of the PASTA kinase IreK of Enterococcus faecalis (natural protein)
chain: MGFTDETVRFDFDDNRKKAISETLETVYRALEEKGYNPINQIVGYLLSGDPAYIPRYQDARNLIRRHERDEIMEELTKYYLANHGIDIK
Question: How did the additional shift of the MurAA Tm with IreB turn out when B1 was run?
Answer: 16.5 °C
